Assay results taken from FireProtDB (doi:10.1021/bi00025a018).

B1: Ribonuclease HI, P0A7Y4 (parent)
chain: MLKQVEIFTDGSCLGNPGPGGYGAILRYRGREKTFSAGYTRTTNNRMELMAAIVALEALKEHCEVILSTDSQYVRQGITQWIHNWKKRGWKTADKKPVKNVDLWQRLDAALGQHQIKWEWVKGHAGHPENERCDELARAAAMNPTLEDTGYQVEV

Variants of: B1
Conditions: Escherichia coli (strain K12), Thermal, CD, NaCl 0.1 M, reversible: yes, structure 2RN2, whole UniProt chain shown
[1] = pH 3, 50.9 °C, glycine-HCl 10 mM
[2] = pH 5.5, 52.5 °C, Sodium acetate 10 mM

Row | Variant | ddG of mutation (higher = less stable) [1] | Tm (pH 3, glycine-HCl 10 mM) | change of melting temperature, mutant - wild type (higher = more stable) (pH 3, glycine-HCl 10 mM) | unfolding enthalpy (van 't Hoff) (pH 3, glycine-HCl 10 mM) | ddG of mutation (higher = less stable) [2] | Tm (pH 5.5, Sodium acetate 10 mM) | change of melting temperature, mutant - wild type (higher = more stable) (pH 5.5, Sodium acetate 10 mM) | unfolding enthalpy (van 't Hoff) (pH 5.5, Sodium acetate 10 mM)
1 | MLKQVEIFTDGSCLGNPGPGGYAAILRYRGREKTFSAGYTRTTNNRMELMAAIVALEALKEHCEVILSTDSQYVRQGITQWIHNWKKRGWKTADKKPVKNVDLWQRLDAALGQHQIKWEWVKGHAGHPENERCDELARAAAMNPTLEDTGYQVEV | -0.7 kcal/mol | 53.2 °C | 2.3 °C | 99.3 kcal/mol | -0.5 kcal/mol | 54.3 °C | 1.8 °C | 91.8 kcal/mol
2 | MLKQVEIFTDGSCLGNPGPGGYGAILRYRGREKTFSAGYTRTTNNRMELMAAIVALEALKEHCEVILSTDSQYVRQGITQWIHNWKKRGWKTADKKPVKNVDLWQRLDAALGQHQIKWEWVKGHAGHPENERCHELARAAAMNPTLEDTGYQVEV | -0.5 kcal/mol | 53.6 °C | 1.7 °C | 106 kcal/mol | -1.9 kcal/mol | 59.5 °C | 7 °C | 107 kcal/mol
3 | MLKQVEIFTDGSCLGNPGPGGYGAILRYRGREKTFSAGYTRTTNNRMELMAAIVALEALKEPCEVILSTDSQYVRQGITQWIHNWKKRGWKTADKKPVKNVDLWQRLDAALGQHQIKWEWVKGHAGHPENERCDELARAAAMNPTLEDTGYQVEV | -1 kcal/mol | 54.3 °C | 3.4 °C | 110 kcal/mol | -1.1 kcal/mol | 56.6 °C | 4.1 °C | 102 kcal/mol
4 | MLKQVEIFTDGSCLGNPGPGGYGAILRYRGREKTFSAGYTRTTNNRMELMAAIVALEALKEHCEVILSTDSQYLRQGITQWIHNWKKRGWKTADKKPVKNVDLWQRLDAALGQHQIKWEWVKGHAGHPENERCDELARAAAMNPTLEDTGYQVEV | -1.1 kcal/mol | 54.6 °C | 3.7 °C | 119 kcal/mol | -0.9 kcal/mol | 55.8 °C | 3.3 °C | 91.2 kcal/mol
